Assay results from publication doi:10.1101/2024.07.19.604271.
Like-named read-outs stand apart in the source and are kept apart here.

Columns and labels:
[1] = target: stabilized microtubules polymerized from pig brain tubulin (GMPCPP-stabilized or Taxotere-stabilized) (pig); assay: TIRF microscopy of fluorescent kinesin on surface-attached microtubules
[2] = target: stabilized microtubules polymerized from pig brain tubulin (GMPCPP-stabilized or Taxotere-stabilized) (pig); assay: as above; remark: listed apart in the source
[3] = target: full-length Kip2-Δ70 (S. cerevisiae) (UniProt P28743); assay: TIRF microscopy, tubulin transport assay

Row | Substance | fold lower affinity than bKip2-WT [1] | fold lower affinity than bKip2-WT [2] | fold reduction of tubulin transport events against wild type Kip2 [3]
1 | bKip2-P1 (motor domain P1 mutant, K294R K296R) (from UniProt P28743 1-560) (domain or fragment) | 3.5 fold | 2.8 fold | –
2 | bKip2-Δ70 (from UniProt P28743 71-560) (domain or fragment) | 1.3 fold | – | –
3 | free tubulin dimers, ATTO-488-labelled, from pig brain (complex) | – | – | 3 to 8 fold
